The target of this assay is T1, N-terminally polyhistidine tagged human MARCO ECD (147-520), recombinant (human, UniProt Q9UEW3 147-520).
T1 construct: also called PI-RG-3000; recombinant human MARCO; not shown: N-terminal polyhistidine tag
T1 sequence: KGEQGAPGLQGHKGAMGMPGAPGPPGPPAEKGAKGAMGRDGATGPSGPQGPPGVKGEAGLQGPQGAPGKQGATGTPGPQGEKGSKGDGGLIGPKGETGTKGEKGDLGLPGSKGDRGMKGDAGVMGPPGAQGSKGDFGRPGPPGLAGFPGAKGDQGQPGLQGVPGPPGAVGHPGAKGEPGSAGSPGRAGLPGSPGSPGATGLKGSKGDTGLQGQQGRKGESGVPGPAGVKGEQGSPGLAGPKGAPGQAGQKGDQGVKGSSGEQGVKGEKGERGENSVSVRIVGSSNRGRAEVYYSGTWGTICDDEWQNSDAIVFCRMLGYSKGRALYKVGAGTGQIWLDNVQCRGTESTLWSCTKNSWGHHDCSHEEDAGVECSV
Nature of the assay: Biacore; sample oxidized with 1.5% H2O2 (24 hr, RT). On the procedure:
(PBS)+1 mM AAPH for 6 h, 0.5 and 1.5% H₂O₂ in PBS for 24 h, which was compared to a previous experiment at 40° C. (PBS)+1 mM AAPH for 6 h. Post treatment the samples were analyzed by LC-MS/MS which identified the % modification on isolated peptides derived from the antibody after trypsin digest.
Binding of the stressed samples to recombinant human MARCO was assessed by Biacore.

B1: PI-3015-AB (antibody, human IgG1, kappa)
heavy: not shown
light: DIQMTQSPSSLSASVGDRVTITCRASEGISNDLAWYQQKPGKAPKLLIYAASRLQSGVPSRFSGSGSGTDYTLTISSMQPEDFATYYCQQSYKYPLTFGQGTKLEIKRTVAAPSVFIFPPSDEQLKSGTASVVCLLNNFYPREAKVQWKVDNALQSGNSQESVTEQDSKDSTYSLSSTLTLSKADYEKHKVYACEVTHQGLSSPVTKSFNRGEC
Regarding B1, the Kd (as a rule, the free concentration of one partner at which half of the binding sites on the other are occupied at equilibrium, for simple one-to-one binding) was 1.07 nM.

The values are drawn from patent US20220153832A1 (PIONYR IMMUNOTHERAPEUTICS, published 2022).
